Here are results for two molecules from publication doi:10.1101/2023.03.09.531992 (bioRxiv, 2023).

Assay [1] concerns the target T1, S. cerevisiae β’WD40 domain (N-terminal WD40 domain of β’-COPI), wild type (S. cerevisiae, UniProt P41811 1-300).
T1 sequence: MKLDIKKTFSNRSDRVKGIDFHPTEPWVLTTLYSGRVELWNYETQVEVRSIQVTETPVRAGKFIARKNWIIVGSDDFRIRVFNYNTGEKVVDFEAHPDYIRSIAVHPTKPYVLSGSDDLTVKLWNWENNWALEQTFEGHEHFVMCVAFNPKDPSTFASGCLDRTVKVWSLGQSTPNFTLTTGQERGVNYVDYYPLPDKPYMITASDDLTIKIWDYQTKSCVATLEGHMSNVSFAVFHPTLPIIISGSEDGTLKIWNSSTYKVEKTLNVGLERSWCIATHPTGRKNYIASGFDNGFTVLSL
As to the kind of experiment: crystal structure.

Assay [2] concerns the target T2, S. pombe αWD40 domain (N-terminal WD40 domain of α-COPI), wild type (S. pombe, UniProt Q96WV5 1-327).
T2 sequence: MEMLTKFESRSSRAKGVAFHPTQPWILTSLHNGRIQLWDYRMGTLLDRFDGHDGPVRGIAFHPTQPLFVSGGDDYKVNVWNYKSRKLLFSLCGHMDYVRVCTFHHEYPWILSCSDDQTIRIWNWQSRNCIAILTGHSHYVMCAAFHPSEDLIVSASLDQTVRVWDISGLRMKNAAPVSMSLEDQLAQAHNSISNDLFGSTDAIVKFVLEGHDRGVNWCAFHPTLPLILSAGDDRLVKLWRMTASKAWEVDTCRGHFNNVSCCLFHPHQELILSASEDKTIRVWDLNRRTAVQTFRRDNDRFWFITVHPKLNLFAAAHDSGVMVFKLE
As to the kind of experiment: NMR titration.

B1: wild-type SARS-CoV-2 S tail heptapeptide (residues 1267-1273), as co-crystallised (peptide)
peptide: GVKLHYT
For the molecule B1, in assay [1], the binding result is “binds”.

B2: 15N-labeled wild-type SARS-CoV-2 S C-terminal tail 21-mer peptide (NMR) (peptide)
peptide: not shown
modifications: 15N isotope label
Turning to B2, in assay [2], the binding result is recorded as “binds”.
